# Reference: patent publication US20240059769A1 (BIOLOJIC DESIGN, published 2024)
# Positions count from the first letter of the chain named.
# B1: BDG38.132 (antibody, V domains shown)
# VH: QMQLVESGGGVVQPGRSLRLSCAASGFEFRTYGMHWVRQAPGKGLEWVGVIWDDGSNTHYADSVKGRFTITRDNSKNTLNLQMNSLRAEDTAVYYCVRAPQWYLTAEAFDLWGQGTMVTVSS
# VL: SYILTQPPSVSVAPGETATITCGGNLIGARLVHWYQQKPGQAPVLVIYDDSDRPSRIPERFSGSNIGNTATLTISRVEAGDEADYYCQVWDYSSDHMVFGGGTKLTVL
# notes: IgG1
# B2: BDG38.076 (antibody, V domains shown)
# VH: B1 VH with E28A, G49A, N57A
# VL: SYVLTQPPSVSVAPGETASITCGGNMIGGYLVHWYQQKPGQAPLLVIYDDVDRPARIPERFSGSNSGNTATLTISRVEAGDEADYYCQVWDHDTNHMVFGGGTKLTVL
# notes: IgG1
# B3: BDG38.135 (antibody, V domains shown)
# VH: B1 VH with R16Q, E28A, V48L, G49A, D53Y, L104N, T105S
# VL: B1 VL with I3V, E16Q, T19R, I47V, R56H, I66S, Y92H, S94A, H96T
# B4: BDG38.139 (antibody, V domains shown)
# VH: B1 VH with E28A, G49A, T105S
# VL: B2 VL with S19T, G29A, D93N, T94S, N95D
# notes: IgG1
# B5: BDG38.137 (antibody, V domains shown)
# VH: B1 VH with R16Q, G49A
# VL: B1 VL with I3V, R56H, I66S, S94A, H96T
# notes: IgG1
# B6: BDG38.096 (antibody, V domains shown)
# VH: B1 VH with G49A, A88V
# VL: B1 VL with T19R, A79E, H96S
# notes: IgG1
# B7: BDG38.126 (antibody, V domains shown)
# VH: B1 VH
# VL: B1 VL with E16Q, T19R, R30K, S75E, A79E
# notes: IgG1
# B8: BDG38.112 (antibody, V domains shown)
# VH: B1 VH with V48L, D53Y
# VL: B1 VL with E16Q, S75E, A79E, H96T, M97Y
# notes: IgG1
# B9: BDG38.092 (antibody, V domains shown)
# VH: B1 VH with R19T, V48L, G49A, A88V
# VL: B1 VL with I3V, R76D, A79E, S93Y
# notes: IgG1
# B10: BDG38.129 (antibody, V domains shown)
# VH: B1 VH with R19T, A88V, V97A
# VL: B1 VL with E16Q, R30K, R76D, A79E
# notes: IgG1
# B11: BDG38.140 (antibody, V domains shown)
# VH: B1 VH with R19T, A88V, V97A
# VL: B1 VL with R30K, S75E, R76D, S94A, D95N
# notes: IgG1
# B12: BDG38.116 (antibody, V domains shown)
# VH: B1 VH with R19T, G49A, A88V
# VL: B1 VL with I3V, E16Q, S75E, S93Y, H96T
# notes: IgG1
# B13: BDG38.090 (antibody, V domains shown)
# VH: B1 VH with R19T, V48L, A88V, V97A
# VL: B1 VL with T19R, I47V, S75E, R76D, A79E, S93Y
# notes: IgG1
# B14: Ab clone 38.019 (yeast surface display) (scFv, V domains shown)
# VH: B1 VH with E28A, G49A, D53Y, T105S
# VL: B1 VL with I3V, E16Q, T19R, A29S, R30K, I47V, I66S, D95N, M97V
# notes: YSD clone; also called BDG38_019
# B15: Ab clone 38.018 (yeast surface display) (scFv, V domains shown)
# VH: B1 VH with E28A, G49A, V97A, T105S
# VL: B1 VL with I3V, E16Q, T19R, A29S, R30K, I47V, I66S, Y92H, M97V
# notes: YSD clone; also called BDG38_018
# B16: Ab clone 38.014 (yeast surface display) (scFv, V domains shown)
# VH: B1 VH with E28A, G49A, D53Y, T105S
# VL: B1 VL with I3V, E16Q, T19R, R30K, I47V, I66S, Y92H, M97V
# notes: YSD clone; also called BDG38_014
# B17: Ab clone 38.026 (yeast surface display) (scFv, V domains shown)
# VH: B1 VH with E28A, G49A, D53Y, N57A, T105S
# VL: B1 VL with I3V, E16Q, A29S, R30K, I47V, Y92H, M97V
# notes: YSD clone; also called BDG38_026
# Target: T1, recombinant human IL-13 (human, UniProt P35225 35-146)
# Assay: cell-based or functional assay
# T1 sequence (P35225 35-146 limits assumed): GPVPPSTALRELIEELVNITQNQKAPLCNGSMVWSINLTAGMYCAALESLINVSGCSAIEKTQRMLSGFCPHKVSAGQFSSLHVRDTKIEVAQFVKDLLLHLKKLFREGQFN
row,Binder,"HEK-IL-13 [nM] (IC50, STAT6 reporter)"
1,B1,0.0899 nM
2,B2,0.0494 nM
3,B3,0.406 nM
4,B4,0.0464 nM
5,B5,0.195 nM
6,B6,0.15 nM
7,B7,0.079 nM
8,B8,0.0367 nM
9,B9,0.12 nM
10,B10,0.0725 nM
11,B11,0.043 nM
12,B12,0.18 nM
13,B13,0.103 nM

# Target: T1, recombinant human IL-13
# Assay: cell-based or functional assay
# Remark: another data set of the same source
row,Binder,IC50 CD23
1,B1,430 pM
2,B2,308 pM
3,B3,408 pM
4,B4,12 pM
5,B5,373 pM
6,B6,250 pM
7,B7,86.8 pM
8,B8,59.4 pM
9,B9,67.5 pM
10,B10,29 pM
11,B11,146 pM
12,B12,83.7 pM
13,B13,6.56 pM

# Target: T2, human TSLP (human, UniProt Q969D9 29-159)
# Assay: cell-based or functional assay
row,Binder,IC50 TARC
1,B1,22400 pM
2,B2,3210 pM
3,B3,804 pM
4,B5,823 pM
5,B6,23400 pM
6,B7,2580 pM
7,B8,104 pM
8,B9,5880 pM
9,B12,59400 pM
10,B13,7.55 pM

# Target: T3, recombinant cynomolgus monkey IL-13 (cynomolgus monkey, UniProt Q0PW92 21-132)
# T3 construct: bought; also called rc-IL-13; cIL-13
# Assay: SPR
# T3 sequence (Q0PW92 entry or part of it): as the sequence (P35225 35-146 limits assumed) above, with G1S, R10K, M42V, S67N, H83R, L100V counted along it
Binder,Kd,koff,kon
B1,56.3 pM,0.00201 s⁻¹,3.58e+07 M⁻¹ s⁻¹
B2,822 pM,0.00671 s⁻¹,8.16e+06 M⁻¹ s⁻¹
B4,339 pM,0.0077 s⁻¹,2.27e+07 M⁻¹ s⁻¹
B6,44.2 pM,0.00242 s⁻¹,5.47e+07 M⁻¹ s⁻¹
B9,42.8 pM,0.00129 s⁻¹,3.01e+07 M⁻¹ s⁻¹
B10,23.1 pM,0.0014 s⁻¹,6.05e+07 M⁻¹ s⁻¹
B11,23.8 pM,0.00131 s⁻¹,5.54e+07 M⁻¹ s⁻¹
B12,27 pM,0.000847 s⁻¹,3.14e+07 M⁻¹ s⁻¹
B13,75.2 pM,0.00187 s⁻¹,2.49e+07 M⁻¹ s⁻¹

# Target: T4, hTSLP-His (human, UniProt Q969D9 29-159, limits assumed)
# T4 construct: bought; also called hTSLP (ACROBiosystems TSP-H52Hb); not shown: His tag
# Assay: competition ELISA, 7 nM TSLP-His pre-incubated with antibody; competitor Tezepelumab coated
row,Binder,IC50
1,B1,9200 pM
2,B2,5380 pM
3,B4,9570 pM
4,B5,10900 pM
5,B6,5870 pM
6,B7,5950 pM
7,B8,29100 pM
8,B9,7380 pM
9,B10,5490 pM
10,B11,5630 pM
11,B12,5120 pM
12,B13,7310 pM

# Target: T1, recombinant human IL-13
# Assay: SPR
Binder,Kd,koff,kon
B1,17.8 pM,0.000184 s⁻¹,1.03e+07 M⁻¹ s⁻¹
B4,27.5 pM,0.000212 s⁻¹,7.71e+06 M⁻¹ s⁻¹
B5,58 pM,0.000252 s⁻¹,4.34e+06 M⁻¹ s⁻¹
B7,29.1 pM,0.000143 s⁻¹,4.92e+06 M⁻¹ s⁻¹
B10,16.7 pM,0.000116 s⁻¹,6.96e+06 M⁻¹ s⁻¹
B11,34.4 pM,0.000168 s⁻¹,4.88e+06 M⁻¹ s⁻¹

# Target: T2, human TSLP
# Assay: SPR
Binder,Kd,koff,kon
B1,3.41 pM,3.55e-05 s⁻¹,1.04e+07 M⁻¹ s⁻¹
B4,3.27 pM,2.54e-05 s⁻¹,7.78e+06 M⁻¹ s⁻¹
B5,16.1 pM,7.01e-05 s⁻¹,4.36e+06 M⁻¹ s⁻¹
B7,17.4 pM,6.72e-05 s⁻¹,3.87e+06 M⁻¹ s⁻¹
B10,22.6 pM,9.12e-05 s⁻¹,4.03e+06 M⁻¹ s⁻¹
B11,8.27 pM,2.79e-05 s⁻¹,3.38e+06 M⁻¹ s⁻¹

# Target: T4, hTSLP-His
# Assay: cell-based or functional assay
row,Binder,"IC50 [pM], STAT5 phosphorylation inhibition in MUTZ5 cells"
1,B1,0.386 pM
2,B2,30.1 pM
3,B4,89 pM
4,B5,1.85 pM
5,B7,0.0421 pM
6,B8,11400 pM
7,B9,33 pM
8,B10,0.676 pM
9,B11,2.21 pM
10,B13,43.4 pM

# Target: T2, human TSLP
# Assay: yeast surface display, affinity maturation library
row,Binder,binding result
1,B14,binds
2,B15,binds
3,B16,binds
4,B17,binds

# Target: T5, cynomolgus monkey (cyno) TSLP (cynomolgus monkey, UniProt A0A7N9CAT7 29-159)
# T5 construct: also called cTSLP; cynomolgus TSLP
# Assay: SPR
# T5 sequence (A0A7N9CAT7 entry or part of it): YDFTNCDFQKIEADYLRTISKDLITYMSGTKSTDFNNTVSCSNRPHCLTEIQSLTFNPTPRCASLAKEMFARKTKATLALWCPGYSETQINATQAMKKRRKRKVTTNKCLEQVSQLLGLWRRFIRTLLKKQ
Binder,Kd,koff,kon
B1,0.321 pM,2.19e-06 s⁻¹,6.83e+06 M⁻¹ s⁻¹
B2,0.00512 pM,3.99e-08 s⁻¹,7.8e+06 M⁻¹ s⁻¹
B4,2.39 pM,1.55e-05 s⁻¹,6.5e+06 M⁻¹ s⁻¹
B6,18.1 pM,6.14e-05 s⁻¹,3.39e+06 M⁻¹ s⁻¹
B9,4.48 pM,1.72e-05 s⁻¹,3.84e+06 M⁻¹ s⁻¹
B10,14.1 pM,5.27e-05 s⁻¹,3.75e+06 M⁻¹ s⁻¹
B11,0.614 pM,2.78e-06 s⁻¹,4.53e+06 M⁻¹ s⁻¹
B12,27.1 pM,0.000386 s⁻¹,1.43e+07 M⁻¹ s⁻¹
B13,9.01 pM,5.53e-05 s⁻¹,6.14e+06 M⁻¹ s⁻¹

# Target: T1, recombinant human IL-13
# Assay: SPR
# Remark: another data set of the same source
Binder,Kd,koff,kon
B2,35.4 pM,0.000231 s⁻¹,6.53e+06 M⁻¹ s⁻¹
B6,25.1 pM,0.000155 s⁻¹,6.19e+06 M⁻¹ s⁻¹
B8,17.3 pM,4.02e-05 s⁻¹,2.32e+06 M⁻¹ s⁻¹
B9,9.5 pM,5.37e-05 s⁻¹,5.65e+06 M⁻¹ s⁻¹
B12,21 pM,0.000116 s⁻¹,5.51e+06 M⁻¹ s⁻¹
B13,19.8 pM,0.00013 s⁻¹,6.57e+06 M⁻¹ s⁻¹

# Target: T2, human TSLP
# Assay: SPR
# Remark: another data set of the same source
Binder,Kd,koff,kon
B2,1.61 pM,3.22e-05 s⁻¹,2e+07 M⁻¹ s⁻¹
B6,21 pM,0.000133 s⁻¹,6.33e+06 M⁻¹ s⁻¹
B8,258 pM,0.000274 s⁻¹,1.06e+06 M⁻¹ s⁻¹
B9,3.92 pM,2.46e-05 s⁻¹,6.28e+06 M⁻¹ s⁻¹
B12,7.27 pM,3.95e-05 s⁻¹,5.44e+06 M⁻¹ s⁻¹
B13,11.8 pM,0.000113 s⁻¹,9.57e+06 M⁻¹ s⁻¹
